Measurements as given in patent US20210363269A1 (ALX ONCOLOGY, published 2021).
Changes are numbered by the printed parent chain. Numbers in names are those of the source.

Experiments:
[1] = target: T1, human SIRPγ isoform 1 (human, UniProt Q9P1W8 29-147); experiment: ELISA, target coated on the plate, scFv-Fc titrated from 0.008 to about 1 µg/ml, OD 405
T1 construct: also called human SIRP-γ v1; sirpg
Protocol: (§1) ELISA assays were carried out to screen binding of antibody clones to SIRP analytes and SIRP-α:CD47 complex. […] Plates were blocked with PBS™ (Phosphate Buffered Saline pH 7.4, 0.05% Tween®20 polysorbate, 3% milk), 50 ul of supernatant containing the secreted scFv-Fc are added for 1 hr at room temp. Plates were washed with PBST. 50 ul of anti-hFc-HRP (1:5000 Rockland 609-4303) added for 1 hr at room temp. Plates were washed with PBST. TMB was developed for 5 min and stopped with 1N HCl. ELISA results were read using BioTek Synergy H1 Hybrid Reader. The corresponding proteins used for the assay and described here are: human SIRPα V1 (SEQ ID NO: 5); human SIRPα V2 (SEQ ID NO:6); cynomolgus SIRPα (SEQ ID NO:11); mouse NOD SIRPα (SEQ ID NO: 8); human SIRPγ (SEQ ID NO: 15); CD47 (SEQ ID NO: 16); high affinity SIRPα V1 (SEQ ID NO: 42); high affinity SIRPα V2 (SEQ ID NO:17).

[2] = target: T2, human SIRP-α v2 D1 domain (human); experiment: as above
T2 construct: biotinylated and captured on avidin in the ELISA; also called human v2
Protocol: as §1

[3] = target: T3, NOD mouse SIRP-α D1 domain (mouse (NOD strain)); experiment: as above
T3 construct: also called mouse NOD SIRPα
T3 chain: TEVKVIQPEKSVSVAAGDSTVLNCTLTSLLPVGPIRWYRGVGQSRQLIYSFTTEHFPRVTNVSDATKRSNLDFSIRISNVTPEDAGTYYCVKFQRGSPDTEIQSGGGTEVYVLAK
Protocol: as §1

[4] = target: T4, cynomolgus SIRP-α D1 domain (SEQ ID NO:11) (cynomolgus, UniProt Q5TFQ8 30-148 (human entry), limits assumed); experiment: SPR, Langmuir fit
T4 construct: also called cyno1
T4 chain: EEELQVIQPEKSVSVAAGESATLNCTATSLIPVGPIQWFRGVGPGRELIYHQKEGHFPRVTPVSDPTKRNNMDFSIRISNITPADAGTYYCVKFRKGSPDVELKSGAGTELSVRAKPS

[5] = target: T5, NOD mouse SIRP-α D1 domain (mouse (NOD strain)); experiment: SPR, Langmuir fit
T5 chain: T3 chain

[6] = target: T6, C57BL/6 mouse SIRP-α D1 domain (mouse (C57BL/6 strain), UniProt P97797 32-148); experiment: SPR, Langmuir fit
T6 sequence: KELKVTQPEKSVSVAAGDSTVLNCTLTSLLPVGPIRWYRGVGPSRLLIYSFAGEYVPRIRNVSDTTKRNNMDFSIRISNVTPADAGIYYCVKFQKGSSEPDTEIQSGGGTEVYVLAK

[7] = target: T7, BALB/c mouse SIRP-α D1 domain (mouse (BALB/c strain)); experiment: SPR, Langmuir fit
T7 chain: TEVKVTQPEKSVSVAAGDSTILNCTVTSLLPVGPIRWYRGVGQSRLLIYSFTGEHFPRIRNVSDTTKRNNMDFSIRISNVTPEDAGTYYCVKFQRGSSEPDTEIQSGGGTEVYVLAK

[8] = target: T8, cynomolgus SIRP-α D1 domain (SEQ ID NO:12) (cynomolgus, UniProt Q5TFQ8 30-148 (human entry), limits assumed); experiment: SPR, Langmuir fit
T8 construct: also called cyno2; Cyno2
T8 chain: T4 chain with E19D, A27V, T28S, V42A, H51N, Q52L, P62A

[9] = target: T4, cynomolgus SIRP-α D1 domain (SEQ ID …); experiment: SPR, antibody immobilised on GLC chip
Protocol: (§2) All experiments were performed at 25° C. using a SPR-based ProteOn XPR36 biosensor (BioRad, Inc, Hercules, Calif.) equipped with GLC or NLC sensor chips. […] Purification was carried out by standard Protein A affinity column chromatography and eluted antibodies were stored in PBS buffer.
(§3) For the method using GLC chip, the analytes were injected and flowed over anti-SIRPα antibodies immobilized (˜1000 RUs) on GLC chips using Proteon™ Amine Coupling Kit. For the immobilization step, GLC chip was activated with EDAC/Sulpho-NHS 1:1 (Biorad) diluted 1/100 for 300 s at 25 μL/min. Anti-SIRPα antibodies were diluted to 80 nM concentration in 10 mM sodium acetate buffer pH 4.5 and immobilized to the chip at 30 μL/min for 50 s. Chip was inactivated with ethanolamine for 300 s at 25 μL/min. The analytes (e.g., SIRP-α from different species, SIRP-β, SIRP-γ) were injected in a “one-shot” kinetic mode at nominal concentrations of 100, 33, 11, 3.7, 1.2 and 0 nM. Association times were monitored for 90 s at 100 μL/min, and dissociation times were monitored for 1200 s. The surfaces were regenerated with a 2:1 v/v blend of Pierce IgG elution buffer/4M NaCl.

[10] = target: T9, human SIRP-α v2 D1 domain (human); experiment: SPR, antibody immobilised on GLC chip
T9 construct: also called human v2; human α v2
Protocol: as §2, §3

[11] = target: T10, human SIRP-α v1 D1 domain (human, UniProt P78324 31-149); experiment: SPR, antibody immobilised on GLC chip
T10 construct: also called human v1; human α v1
Protocol: as §2, §3

[12] = target: T4, cynomolgus SIRP-α D1 domain (SEQ ID …); experiment: SPR, ProteOn, antibody on chip
Protocol: as §2
(§4) The running buffer was PBS pH 7.4 with 0.01% Tween-20 (PBST+). All analytes were used at their nominal concentrations as determined by A280 Absorbance and using their molar calculated extinction coefficient.
as §3

[13] = target: T11, human SIRPβ isoform 1 (human, UniProt O00241 30-148); experiment: SPR, ProteOn, antibody on chip
T11 construct: also called sirpb1; Sirpb1
Protocol: as §2, §4, §3

[14] = target: T9, human SIRP-α v2 D1 domain; experiment: SPR, ProteOn, antibody on chip
Protocol: as §2, §4, §3

[15] = target: T12, human SIRPβ isoform 2 (human, UniProt Q5TFQ8 30-148); experiment: SPR, ProteOn, antibody on chip
T12 construct: also called Sirpb2; beta isoform 2
Protocol: as §2, §4, §3

[16] = target: T13, human SIRPγ isoform 1 (human, UniProt Q9P1W8 29-147); experiment: SPR, ProteOn, antibody on chip
T13 construct: also called sirpg; sirp-g
Protocol: as §2, §4, §3

[17] = target: T10, human SIRP-α v1 D1 domain; experiment: SPR, ProteOn, antibody on chip
Protocol: as §2, §4, §3

[18] = target: T14, human SIRPβ isoform 1 (human, UniProt O00241 30-148); experiment: SPR Koff +/-
T14 construct: also called Beta; Human SIRPb
How it was run: (§5)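 Antibodies were amine-coupled (GLC chip) or captured via biotinylated Protein A (NLC chip) on a ProteOn XPR36, and SIRP analytes were injected in one-shot kinetic mode at 25° C in PBS pH 7.4 with 0.01% Tween-20. KD is kd/ka from apparent rate constants given by a global simple Langmuir fit of double-referenced data, with analyte concentrations nominal.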

[19] = target: T15, human SIRP-α v2 (human); experiment: SPR KD
T15 construct: also called Human v2; Human V2
How it was run: as §5

[20] = target: T16, human SIRP-α v1 (human, UniProt P78324 31-149); experiment: SPR
T16 construct: also called Human v1; Human V1
How it was run: as §5

[21] = target: T17, human SIRPγ isoform 1 (human, UniProt Q9P1W8 29-147); experiment: SPR Koff +/-
T17 construct: also called Gamma; Human SIRPg
How it was run: as §5

[22] = target: T18, mouse 129 SIRP-α (mouse (129 strain), UniProt P97797 32-150); experiment: SPR Koff +/-
T18 construct: also called m129
T18 chain: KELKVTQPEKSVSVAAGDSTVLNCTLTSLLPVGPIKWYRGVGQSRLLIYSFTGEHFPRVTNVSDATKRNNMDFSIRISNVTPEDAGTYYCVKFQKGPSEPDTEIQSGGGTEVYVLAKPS
How it was run: as §5

[23] = target: T19, cynomolgus SIRP-α (cynomolgus monkey, UniProt Q5TFQ8 30-148 (human entry), limits assumed); experiment: SPR Koff +/-
T19 construct: also called cyno1
T19 chain: T4 chain
How it was run: as §5

T12 sequence (Q5TFQ8 30-148 limits assumed): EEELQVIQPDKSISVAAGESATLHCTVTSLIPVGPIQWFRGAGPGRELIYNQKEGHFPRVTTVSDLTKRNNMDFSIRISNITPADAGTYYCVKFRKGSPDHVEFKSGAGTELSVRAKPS
T16 sequence (P78324 31-149 limits assumed): as the sequence (Q5TFQ8 30-148 limits assumed) above, with I13V, S14L, S20T, H24R, V27A, S79G, H101D counted along it
T15 sequence (chain, as listed by the source limits assumed): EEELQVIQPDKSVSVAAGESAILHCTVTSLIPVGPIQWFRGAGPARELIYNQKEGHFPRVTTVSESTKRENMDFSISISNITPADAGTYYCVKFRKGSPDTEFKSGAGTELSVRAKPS

B1: S138 (scFv)
scFv: EIVLTQSPGTLSVSPGERVILTCRASQSVDTYNLAWYQQKPGQAPRLLIYDLSTRATGIPDRFSGSGSGTEFTLTINSLEPEDFAVYYCHQYYDWPPYTFGGGTKVEIKGQSSRSSGGGGSSGGGGSDVQLVESGGGVVRPGESLRLSCAASGFTFSNYAMNWVRQAPGEGLEWVSGISGRGGDTYYADSVKGRFTISRDNSKNTLYLQMNSLRAEDTAIYYCAKGTWNYGSFDYWGLGTLVTVSSSLDPKSSDKTDTCPPCPAPELLGGPSVFLFPPKPKDTLMISRTPEVTCVVVDVSHEDPEVKFNWYVDGV
notes: also called clone S138
binding result [1]: no binding (tested: about 1 µg/ml) | binding result [2]: no binding (tested: about 1 µg/ml) | binding result [3]: no binding (tested: about 1 µg/ml)

B2: AB45 (as in Table J1) (antibody, V domains shown)
VH: AVTLDESGGGLQTPGGALSLVCKASGFTFSSYAMGWVRQAPGKGLEWVAGIDDDGSTANYGPAVKGRATISRDNGQSTVRLQLNNPRAEDSGTYFCAKASVTGWSAHISGRLDTWGHGTEVIVSS
VL: ALTQPASVSANPGETVKITCSGGGIYYYGWYQQKSPGSAPVTLIYENDKRPSDIPSRFSGSTSGSTNTFTITGVQAEDEAVYYCGGYDSNTTSGIFGAGTTLTVL
notes: also called antibody 45
binding result [4]: no binding | binding result [5]: no binding | binding result [6]: no binding | binding result [7]: no binding | binding result [8]: no binding

B3: AB119a (antibody, human IgG1, V domains shown)
VH: DVQLLESGGGVVQPGGSLRLSCAASGFSFSNFAMTWVRQAPGEGLEWVSTIGSGDTYYADSVKGRFTISRDNSKNTLYLQMNSLRAEDTAVYYCAKDSTVSWSGDFFDYWGLGTLVTVSS
VL: EIVLTQSPATLSVSPGERATFSCRASQNVKNDLAWYQQRPGQAPRLLIYAARIRETGIPERFSGSGSGTEFTLTITSLQSEDFAVYYCQQYYDWPPFTFGGGTKVEIK
notes: Full-length human IgG1 with L234A, L235A, G237A and N297A; only variable domains tied to the clone
Kd [9]: 0.112 nM | Kd [10]: 0.0682 nM | Kd [11]: 0.183 nM | Kd [12]: 0.145 nM | Kd [13]: 0.342 nM | Kd [14]: 0.0799 nM | Kd [15]: 0.376 nM | Kd [16]: 0.886 nM | Kd [17]: 0.198 nM

B4: antibody 194 (antibody, V domains shown)
VH: DVQLVESGGGVVRPGESLRLSCAASGFTFRNYGMSWVRQAPGEGLEWVSASSGSGSTYYADSVKGRFTISRDNSKNTLYLQMNSLRAEDTAIYYCAKVTWNNFFDYWGLGTLVTVSS
VL: EIVLAQSPDTLSVSPGERATLTCRASQDVAGKLAWYQQKPGQAPRLLIHATSSRADGIPARFSGSGSGTEFTLTITGLQSEDFAVYYCQQHYDWSPLTFGGGTKVEIK
notes: also called S194
binding result [18]: no binding | binding result [19]: no binding | Kd [20]: 0.497 nM

B5: antibody 123 (antibody, V domains shown)
VH: VQLVESGGGLVQPGGSLRLSCTASGFTFRNYGMSWVRQAPGEGLEWVSASSGSGSTYYTDSVKGRFTISRDNSKNTLYLQMNSLRAEDTAIYYCAKVTWNNFFDYWGLGTLVTVSS
VL: EIVLTQSPGTLSVSPGERVTLTCRASQGIAGKIAWYQQKPGQAPRLLIYDASSRATGIPGRFSGSGSGTEFTLTITSLQSEDFAVYYCQQHYDWSPLTFGGGTKVEIK
notes: also called S123
binding result [21]: binds | binding result [22]: no binding | binding result [23]: binds | binding result [18]: no binding | binding result [19]: no binding | Kd [20]: 0.605 nM

B6: AB132a (antibody, human IgG1, V domains shown)
VH: DVQLVESGGGVVRPGESLRLSCAASGFSFRSYAMNWVRQAPGEGLEWVSRINSGGGGTDYADSVKGRFTISRDNSKNTLYLQMNSLRAEDTAVYYCAKQYDWNSFFDYWGLGALVTVSS
VL: ETVLTQSPATLSVSPGERATLSCRASQTVGSKLAWHQQKPGQAPRLLIYDASNRATGIPDRFSGSGSGTDFTLTISSPQTEDSAVYYCQQYYYWPPYRFGGGTKVEIK
notes: as for B3
Kd [12]: 2.41 nM | Kd [13]: 0.131 nM | Kd [14]: 1.86 nM | Kd [15]: 0.164 nM | Kd [16]: 0.519 nM | Kd [17]: 0.426 nM
